First the molecules themselves.
T1: HCMV pUL50, C-terminally fused to the HA epitope (pcDNA-UL50-HA, pHM2589) (human cytomegalovirus (HCMV) strain …, UniProt P16791 1-397)
T1 sequence: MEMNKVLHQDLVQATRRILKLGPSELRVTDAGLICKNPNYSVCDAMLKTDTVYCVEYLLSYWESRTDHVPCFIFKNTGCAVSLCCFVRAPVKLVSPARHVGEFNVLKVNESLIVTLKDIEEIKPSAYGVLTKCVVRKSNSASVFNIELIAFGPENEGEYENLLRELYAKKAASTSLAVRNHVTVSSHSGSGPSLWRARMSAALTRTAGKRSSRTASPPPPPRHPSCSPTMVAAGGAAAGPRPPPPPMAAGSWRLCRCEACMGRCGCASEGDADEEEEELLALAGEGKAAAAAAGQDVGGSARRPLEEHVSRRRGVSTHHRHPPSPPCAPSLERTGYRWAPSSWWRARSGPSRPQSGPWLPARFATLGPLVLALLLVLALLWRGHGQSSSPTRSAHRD

T2: His-tagged pUL50 (HCMV groove protein, soluble recombinant) (human cytomegalovirus (HCMV)), P16791
T2 chain: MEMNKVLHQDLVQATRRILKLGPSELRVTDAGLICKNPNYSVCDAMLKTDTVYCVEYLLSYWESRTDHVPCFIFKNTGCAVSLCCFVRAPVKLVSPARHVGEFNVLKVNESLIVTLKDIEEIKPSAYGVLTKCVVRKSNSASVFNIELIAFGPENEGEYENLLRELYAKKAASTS

T3: pUL53 (HCMV hook protein, soluble recombinant) (human cytomegalovirus (HCMV), UniProt P16794 50-292)
T3 sequence: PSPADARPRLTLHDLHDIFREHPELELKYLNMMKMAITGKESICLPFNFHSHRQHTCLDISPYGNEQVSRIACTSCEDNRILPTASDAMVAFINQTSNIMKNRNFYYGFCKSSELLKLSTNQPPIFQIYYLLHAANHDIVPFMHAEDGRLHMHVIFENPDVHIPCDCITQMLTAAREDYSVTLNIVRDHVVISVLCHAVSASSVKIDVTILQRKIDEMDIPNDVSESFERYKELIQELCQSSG

T4: BFLF2 (EBV hook protein, soluble recombinant) (Epstein-Barr virus (EBV), UniProt P0CK47 78-318)
T4 sequence: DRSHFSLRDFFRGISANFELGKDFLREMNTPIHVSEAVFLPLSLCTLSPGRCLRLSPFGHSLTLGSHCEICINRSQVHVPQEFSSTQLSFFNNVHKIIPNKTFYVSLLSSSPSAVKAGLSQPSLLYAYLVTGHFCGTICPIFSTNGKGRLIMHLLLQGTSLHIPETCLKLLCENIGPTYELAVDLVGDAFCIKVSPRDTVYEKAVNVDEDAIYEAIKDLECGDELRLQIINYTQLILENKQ

B1: VZV Orf27, C-terminally fused to the Flag epitope (pcDNA-Orf27-Flag, pHM4696) (other)
chain: MHLKPTRFFHANQPPMPHSYEMEDLCFDDMQYRWSPSNTPYRSMSRRYKSVSRSGPSMRVRSRTPCRRQTIRGKLMSKERSVYRHYFNYIARSPPEELATVRGLIVPIIKTTPVTLPFNLGQTVADNCLSLSGMGYHLGLGGYCPTCTASGEPRLCRTDRAALILAYVQQLNNIYEYRVFLASILALSDRANMQAASAEPLLSSVLAQPELFFMYHIMREGGMRDIRVLFYRDGDAGGFMMYVIFPGKSVHLHYRLIDHIQAACRGYKIVAHVWQTTFLLSVCRNPEQQTETVVPSIGTSDVYCKMCDLNFDGELLLEYKRLYALFDDFVPPRDYKDDDDK
B2: pUL53 (50-292) (other)
chain: T3 sequence
B3: EBV hook peptide (Ac-BFLF2 80-108-Aoa-Lys(Bio)-NH2) (peptide)
peptide: Ac-SHFSLRDFFRGISANFELGKDFLREMNTP[Aoa]K(Bio)-NH2
modifications: reading uncertain
B4: His-tagged pUL50 (HCMV groove protein, soluble recombinant) (other)
chain: T2 chain
notes: also called His-tagged groove protein
B5: His-tagged BFRF1 (EBV groove protein, soluble recombinant) (other)
chain: MASPEERLLDELNNVIVSFLCDSGSLEVERCSGAHVFSRGSSQPLCTVKLRHGQIYHLEFVYKFLAFKLKNCNYPSSPVFVISNNGLATTLRCFLHEPSGLRSGQSGPCLGLSTDVDLPKNSIIMLGQDDFIKFKSPLVFPAELDLLKSMVVCRAYITEHRTTMQFLVFQAANAQKASRVMDMISDMSQQLS
notes: as for B4
B6: EBV BFRF1, C-terminally fused to the HA epitope (pcDNA-BFRF1-HA, pHM4697) (other)
chain: MASPEERLLDELNNVIVSFLCDSGSLEVERCSGAHVFSRGSSQPLCTVKLRHGQIYHLEFVYKFLAFKLKNCNYPSSPVFVISNNGLATTLRCFLHEPSGLRSGQSGPCLGLSTDVDLPKNSIIMLGQDDFIKFKSPLVFPAELDLLKSMVVCRAYITEHRTTMQFLVFQAANAQKASRVMDMISDMSQQLSRSGQVEDTGARVTGGGGPRPGVTHSGCLGDSHVRGRGGWDLDNFSEAETEDEASYAPWRDKDSWSESEAAPWKKELVRHPIRRHRTRETRRMRGSHSRVEHVPPETRETVVGGAWRYSWRATPYLARVLAVTAVALLLMFLRWT
notes: also called EBC BFRF1-HA; HA-tagged BFRF1
B7: VZV Orf24, C-terminally fused to the HA epitope (pcDNA-Orf24-HA, pHM4695) (other)
chain: MSRRTYVRSERRRGCGDNLLQRIRLVVPSALQCCDGDLPIFDPQRPPARCVFQFNGEDNVSEAFPVEYIMRLMANWAQVDCDPYIKIQNTGVSVLFQGFFFRPTNAPVAEVSIDSNNVILSSTLSTGINLSALESIKRGGGIDRRPLQALMWVNCFVRMPYVQLSFRFMGPEDPSRTIKLMARATDAYMYKETGNNLDEYIRWRPSFRSPPENGSPNTSVQMQSDIKPALPDTQTTRVWKLALPVANVTYALFIVIVLVVVLGAVLFWK
B8: HCMV hook peptide (Ac-pUL53 59-87-Aoa-Lys(Bio)-NH2) (peptide)
peptide: LTLHDLHDIFREHPELELKYLNMMKMAITK
modifications: not checked
B9: EBV BFLF2, C-terminally fused to the Flag epitope (pcDNA-BFLF2-Flag, pHM4698) (other)
chain: MAPVTPDAVNARQQRPADPALRRLMHPHHRNYTASKASAHSVKSVSRCGKSRSELGRMERVGSVARSICSRHTRHGVDRSHFSLRDFFRGISANFELGKDFLREMNTPIHVSEAVFLPLSLCTLSPGRCLRLSPFGHSLTLGSHCEICINRSQVHVPQEFSSTQLSFFNNVHKIIPNKTFYVSLLSSSPSAVKAGLSQPSLLYAYLVTGHFCGTICPIFSTNGKGRLIMHLLLQGTSLHIPETCLKLLCENIGPTYELAVDLVGDAFCIKVSPRDTVYEKAVNVDEDAIYEAIKDLECGDELRLQIINYTQLILENKQDYKDDDDK
notes: also called Flag-tagged BFLF2
B10: HCMV pUL53, C-terminally fused to the Flag epitope (pcDNA-UL53-Flag, pHM2590) (other)
chain: MSSVSGVRTPRERRSALRSLLRKRRQRELASKVASTVNGATSANNHGEPPSPADARPRLTLHDLHDIFREHPELELKYLNMMKMAITGKESICLPFNFHSHRQHTCLDISPYGNEQVSRIACTSCEDNRILPTASDAMVAFINQTSNIMKNRNFYYGFCKSSELLKLSTNQPPIFQIYYLLHAANHDIVPFMHAEDGRLHMHVIFENPDVHIPCDCITQMLTAAREDYSVTLNIVRDHVVISVLCHAVSASSVKIDVTILQRKIDEMDIPNDVSESFERYKELIQELCQSSGNNLYEEATSSYAIRSPLTASPLHVVSTNGCGPSSSSQSTPPHLHPPSQATQPHHYSHHQSQSQQHHHRPQSPPPPLFLNSIRAPDYKDDDDK
notes: also called pUL53-Flag; Flag-tagged pUL53

Data set [1] deals with T1, HCMV pUL50, C-terminally fused to the …. Briefly: coimmunoprecipitation, transiently transfected 293T cells.
Data set [2] concerns the molecule itself. Briefly: analytical size exclusion chromatography, self-association. (In general: In gel filtration, larger molecules generally elute earlier.)
In data set [3] the target is T2, His-tagged pUL50 (HCMV groove protein, …). Briefly: competitive ELISA, inhibition of His-tagged pUL50 binding to coated pUL53. On the technique in general: In an ELISA, binding on a coated surface is turned into a signal by an enzyme label.
Data set [4] has as its target T3, pUL53 (HCMV hook protein, soluble …). Briefly: direct ELISA, pUL53 coated, His-tagged pUL50 in serial dilutions, anti-His-HRP.
Method: (§1) The hook—groove protein interactions of the HCMV and EBV NECs was analyzed at the level of soluble recombinant proteins, using a direct ELISA type binding assay, in which the hook protein was coated to microtiter plates, and the His-tagged groove proteins added at different concentration.
(§2) Unspecific binding was blocked with 1% BSA in 0.1 M phosphate buffer pH 7.2 (200 μL/well, one hour). Plates were then incubated with 100 μL/well of His-tagged groove protein solution (pUL50 and BFRF1, respectively) at serial dilutions, starting from 2.5 μg/mL and 15 μg/mL, respectively, for one hour. Bound protein was detected using 100 μL/well anti-His-HRP conjugate from Sigma at a 1:10.000 dilution. All proteins and antibodies were in 0.1 M phosphate buffer pH 7.2, containing 0.1% BSA and 0.01% Tween20. Plates were washed four times with 0.01% Tween 20 in 0.1 M phosphate buffer pH 7.2 (300 μL/well) after each incubation step. Plates were developed with 100 μL/well OPD (1 mg/mL) in the presence of 0.03% H₂O₂ for approximately 10 minutes in the dark. […] All data points present means of duplicates.
Data set [5] shares this target. Briefly: direct ELISA, comparison of EC50 values.
Method: as §1, §2
Data set [6] has as its target T4, BFLF2 (EBV hook protein, soluble …). Briefly: direct ELISA, BFLF2 coated, His-tagged BFRF1 in serial dilutions, anti-His-HRP.
Method: as §1, §2
For data set [7], the target named is B10. The experiment in a line: coimmunoprecipitation, transiently transfected 293T cells.
The target in data set [8] is B1. The data set is described as above.
For data set [9], the target named is B6. The data set is described as above.

Non-standard residues stand in square brackets, D forms with d. *: point of attachment. Bio = O=C1N[C@H]2[C@H](CS[C@H]2CCCCC(=O)*)N1; Aoa = not defined here

For the molecule B1, the binding result in data set [1] is recorded as “no binding”.
Take B2: the binding result in data set [2] is on record as “binds”.
With B3, in data set [3], the IC50 (usually the midpoint of a concentration-inhibition curve) turned out to be 2600 nM and the fold lower inhibitory activity than the HCMV hook peptide was determined as 22 fold.
For the molecule B4, the concentration giving a half-maximal response (EC50) (usually the midpoint of the concentration-response curve) in data set [4] was 6.2 nM. Besides, the “fold stronger than the BFRF1-BFLF2 interaction of EBV” value in data set [5] was around 20 fold.
Turning to B5, the EC50 in [6] amounted to 122 nM.
Consider B6, for which the binding result in data set [7] was “no binding”.
Consider B7, for which the results for the binding result in [8] and in data set [7] were “binds” and “no binding”, respectively.
In the case of B8, the 50% inhibitory concentration (IC50) in data set [3] worked out at 114 nM.
Consider B9, for which the binding result in data set [1] is given as “no binding”; in data set [9], “binds”.
As to B10, the binding result in data set [1] is recorded as “binds”.

The record behind these values is patent US20210396761A1 (AICURIS, published 2021).
